For 133 substances, amyloid nucleation score results are on record in the supplement of paper PMC12042874.

± gives the uncertainty stated by the source.

This data set can be described thus: amyloid nucleation score (Sup35N fusion, yeast selection) (log enrichment); library NNK3; higher = more nucleation; inactive = no reads after selection. The essentials:
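Sup35N was fused to peptides of 20 random codons and expressed in psi-negative yeast, which were induced with 100 μM copper sulfate for 24 hours and then grown on medium lacking adenine and uracil for 7 days at 30°C. Plasmid inserts from input and output were sequenced on Illumina. The nucleation score is the DiMSum log enrichment of output over input reads, centred on the mode score of non-aggregating sequences. Sequences with under 100 input reads were left out, and random libraries had three technical output replicates.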
LTNSYLDMLRM: the amyloid nucleation score entry was “inactive”.

Regarding GCTDIHASEH, the amyloid nucleation score entry was “inactive”.

In the case of GVDRRIR, the amyloid nucleation score entry is “inactive”.

In the case of LNLMD, the amyloid nucleation score entry is “inactive”.

Turning to FDVIS, the amyloid nucleation score entry was “inactive”.

Take YTVLWDLVFWGTPICYVIDN: the amyloid nucleation score result is “inactive”.

Regarding GMQPVQQ, the amyloid nucleation score result was “inactive”.

Turning to FVMFAKASRGCTVSLCVYDV, the amyloid nucleation score is -0.37 ± 0.39.

On to ISIETGWRNHFTSVPACMLH, for which the amyloid nucleation score entry was “inactive”.

NYYYMYGKCSI: the amyloid nucleation score amounted to 2.28 ± 0.082.

Consider HIHEDWFFS, for which the amyloid nucleation score result is “inactive”.

WAAWFYASGVRASEGRDYGG: the amyloid nucleation score entry is “inactive”.

Consider SMRSA, for which the amyloid nucleation score result was “inactive”.

Take CIRVTMSNMMVESWVYGDKP: the amyloid nucleation score amounted to 0.586 ± 0.15.

On to PLIYSTLNCKRM, for which the amyloid nucleation score entry is “inactive”.

As to CLFRYSEYSVGKLMGYCDCG, the amyloid nucleation score result is “inactive”.

Consider DHKFGNMLAFESRLVLYQIK, for which the amyloid nucleation score entry was “inactive”.

On to CKIGYPTYNVGVIVSLVVRM, for which the amyloid nucleation score stood at 1.61 ± 0.066.

With QIPSGVVCGMNGYCLGAVTR, the amyloid nucleation score result is “inactive”.

FAVTLNSWRARFRFMDRNDM: the amyloid nucleation score was 0.682 ± 0.26.

In the case of LKKYCMYMSSY, the amyloid nucleation score result was “inactive”.

FSCSYTMGQCEASCVWQLKY: the amyloid nucleation score is 0.36 ± 0.35.

Regarding SLSIVETIGVCL, the amyloid nucleation score result was “inactive”.

Turning to FNISIRVDIVISICNNVVFN, the amyloid nucleation score came to 0.596 ± 0.19.

Consider SFNNININIVVFNVAPFSVH, for which the amyloid nucleation score worked out at 2.51 ± 0.082.

With FISRSGAVGRRS, the amyloid nucleation score entry was “inactive”.

In turn, SSYVLNYIHLSG yielded an amyloid nucleation score of 1.88 ± 0.08.

Turning to LTSMI, the amyloid nucleation score entry was “inactive”.

With GSSYTGTEVVCKLDFSHVFR, the amyloid nucleation score was determined as 0.92 ± 0.13.

As for GIRVF, the amyloid nucleation score entry is “inactive”.

In the case of LISMYHHCSGHLVAQDTVSV, the amyloid nucleation score entry is “inactive”.

For FNFLVWAQ, the amyloid nucleation score entry is “inactive”.

For VTQATWLGRIYLLLAPA, the amyloid nucleation score result is “inactive”.

Consider IVDNYVVAALLVVLS, for which the amyloid nucleation score result was “inactive”.

As for YEAYV, the amyloid nucleation score result is “inactive”.

Consider SVGKWMYRPSEYGACCASGY, for which the amyloid nucleation score result was “inactive”.

In the case of SIVSRLLDSIPMMIMSFYFG, the amyloid nucleation score entry was “inactive”.

CCMVNRGTRQVSRWIVPNWR: the amyloid nucleation score entry was “inactive”.

In the case of NPDAYKERTDLVWSVVVLLW, the amyloid nucleation score result is “inactive”.

Consider SNRNRTTNMNHEPLANYSFN, for which the amyloid nucleation score entry is “inactive”.

As to LGQRWHVMLVLMSVYIF, the amyloid nucleation score entry is “inactive”.

Turning to LWEVRSEPDPDSSNKLLSRE, the amyloid nucleation score came out at 0.136 ± 0.39.

For the substance GSIVFGCSWASQSVCQDQWV, the amyloid nucleation score entry is “inactive”.

Substance LTFLVRDCCTCSICNDGPSR came in with an amyloid nucleation score of 3.08 ± 0.079.

In turn, TVRKSRSRSTQDEAFNPGTH came in with an amyloid nucleation score of 0.111 ± 0.63.

In the case of KSSIMKGKLTHRGSQWFASQ, the amyloid nucleation score result was “inactive”.

On to RNSVFLCKGIQVYLVLVIVV, for which the amyloid nucleation score entry is “inactive”.

With KRNSYTMFLA, the amyloid nucleation score result is “inactive”.

Take PCFEFSTSVRVFSDAKGLSV: the amyloid nucleation score is 0.234 ± 0.25.

As to SSAIMCWRFMLMNSILITTP, the amyloid nucleation score result was “inactive”.

In the case of ETNEGPH, the amyloid nucleation score entry was “inactive”.

Turning to FNATCVVGHQVSVCNPWDAH, the amyloid nucleation score result is “inactive”.

With VFVFDVLFGLLNMANFREVD, the amyloid nucleation score is -0.713 ± 0.88.

As for VLTFNKGFFGC, the amyloid nucleation score was 1.26 ± 0.11.

With YSTVYIGSQVRVDDTLSMSA, the amyloid nucleation score result was “inactive”.

As to SVRGIKVNLWRKEDLYASTQ, the amyloid nucleation score result was “inactive”.

For WTYIWCAN, the amyloid nucleation score was determined as 1.75 ± 0.11.

For the substance VNGLLAIRVYCKHWP, the amyloid nucleation score entry was “inactive”.

Turning to FKSAFWLIM, the amyloid nucleation score entry was “inactive”.

For VKSLIELCRYNRPLALDLNI, the amyloid nucleation score was -0.519 ± 0.8.

Take IRLFAVTAYSIVTYVRFMIG: the amyloid nucleation score result is “inactive”.

Regarding TETASNSTRYSFL, the amyloid nucleation score entry was “inactive”.

With LYRCDDGCSIRTVRDYWWVS, the amyloid nucleation score result was “inactive”.

Take NDHSEGTCSIRERQTSRWML: the amyloid nucleation score entry is “inactive”.

TLYKSGGEFHYKGLALKSKC: the amyloid nucleation score result was “inactive”.

As to TLLFY, the amyloid nucleation score result is “inactive”.

In the case of LFYGSTCIGTDM, the amyloid nucleation score was -1.07 ± 1.1.

MRRGEDCVV: the amyloid nucleation score result is “inactive”.

On to CNLALFTRGWGEYMIVSCCK, for which the amyloid nucleation score entry is “inactive”.

Turning to CLSLDQWWLHRYDHLVLGET, the amyloid nucleation score result was “inactive”.

With GYYPLYVTFNSMCEFNIQLQ, the amyloid nucleation score was determined as 3.11 ± 0.051.

Consider KFEGLF, for which the amyloid nucleation score result is “inactive”.

Turning to CLQSARYKIFCFFYFDVLSH, the amyloid nucleation score entry was “inactive”.

For the substance YRILINFLSWYLCIYYASCA, the amyloid nucleation score entry was “inactive”.

Regarding NMCYSVCVHYLLTAESKCHT, the amyloid nucleation score result is “inactive”.

In the case of IVRLFLDVSSVTGHIWARCL, the amyloid nucleation score entry is “inactive”.

For CDTSCWLLSTPLADWTIAFN, the amyloid nucleation score result is “inactive”.

As for VNHKFKSSFFNNH, the amyloid nucleation score was -0.27 ± 1.1.

Consider TRKLIDYLFTVKQVLQSKEE, for which the amyloid nucleation score entry was “inactive”.

As to MPMGGRYSAKAIVLVQKKDW, the amyloid nucleation score entry is “inactive”.

With YFCSFREVRSHGQTLR, the amyloid nucleation score entry is “inactive”.

As for FLIWGKQPWTRKLLGTIVPV, the amyloid nucleation score result was “inactive”.

Consider GKCLLYRFILILLHP, for which the amyloid nucleation score is -0.155 ± 0.93.

Consider CNDLVYFMMFVLYLVTRWET, for which the amyloid nucleation score entry was “inactive”.

Consider VRSRRLLCKNRTVVEARNVV, for which the amyloid nucleation score entry is “inactive”.

For the substance QWCCVTRFIGYSKGYGRKAP, the amyloid nucleation score entry was “inactive”.

As to HVIFFYILAFYNHSMGRTAV, the amyloid nucleation score result was “inactive”.

Regarding FNARLFISLLIKDRK, the amyloid nucleation score result is “inactive”.

On to NVLALECVRDWT, for which the amyloid nucleation score entry was “inactive”.

As for CCFIYECSLRNLSALVDDQR, the amyloid nucleation score was 1.18 ± 0.091.

As to RNCQRESGTLYNYHVARS, the amyloid nucleation score entry is “inactive”.

In the case of DRVKACARFGRW, the amyloid nucleation score entry is “inactive”.

Take SCFSSYCRYNLRLSWRQNFV: the amyloid nucleation score is -0.474 ± 1.

With NEIFIRLLSNMKEPR, the amyloid nucleation score amounted to 1.31 ± 0.14.

As for RYDLSVSIATMVNVYFLLRG, the amyloid nucleation score entry is “inactive”.

For IETGSKYVAVRARLQSVMDG, the amyloid nucleation score result is “inactive”.

With FNGMACVFRISFVALRLQGG, the amyloid nucleation score is -0.892 ± 1.7.

Turning to TFGHWAMYVSCWDRVVCGVD, the amyloid nucleation score result was “inactive”.

On to VMKSYDWEDWSSDPFIFRYV, for which the amyloid nucleation score result is “inactive”.

With TGPFGINLRGR, the amyloid nucleation score result was “inactive”.

Take TFLWY: the amyloid nucleation score result is “inactive”.

On to SVASRTSEGTGYSCIIRVFH, for which the amyloid nucleation score entry is “inactive”.

In turn, CNVFWVPTVRLIFKMYKVSR displayed an amyloid nucleation score of 0.417 ± 0.36.

NGKVLM: the amyloid nucleation score result was “inactive”.

HDDISISESIFRRLQIRVIL: the amyloid nucleation score result was “inactive”.

Take LESFWFMTGFF: the amyloid nucleation score entry was “inactive”.

Regarding MNTVGLIDLHSGAPLSINRT, the amyloid nucleation score result was “inactive”.

With RLSLKSFVRFQRLCP, the amyloid nucleation score entry was “inactive”.

For the substance ILYNFEDVLWAGSLRIGLNL, the amyloid nucleation score entry is “inactive”.

Regarding RTVKNSRLGTMIVY, the amyloid nucleation score entry was “inactive”.

As to RSMKLPAKTASLLH, the amyloid nucleation score result was “inactive”.

For the substance VRNKLNCKRSGA, the amyloid nucleation score result was “inactive”.

Take SLLALNRSPVLMRYISEHCN: the amyloid nucleation score result is “inactive”.

Regarding GDLKLGLVIYESCGSMVMSW, the amyloid nucleation score entry is “inactive”.

As for NYYNLYCLTVLQKRLQAGMQ, the amyloid nucleation score result was “inactive”.

As to QVTLWFKKNLSELM, the amyloid nucleation score entry is “inactive”.

Turning to SFVQEMGDPPYHKQSQQLRS, the amyloid nucleation score entry was “inactive”.

Take LVALVRECT: the amyloid nucleation score entry is “inactive”.

Regarding MGNRNDSNLTRCWESTLVVK, the amyloid nucleation score result was “inactive”.

For VCCCHLCL, the amyloid nucleation score turned out to be 0.17 ± 0.56.

Turning to IPSNTKSFSH, the amyloid nucleation score result was “inactive”.

For WDLITL, the amyloid nucleation score result was “inactive”.

Regarding RTWIRAYVSMQFRMCQDTDV, the amyloid nucleation score result is “inactive”.

In the case of SCAYGLGCMLMVKHN, the amyloid nucleation score entry was “inactive”.

Take FHMIECGVYAKHLGHCTRYI: the amyloid nucleation score is -0.079 ± 0.33.

For the substance IQCIWDIVGDCWCNSSMGKE, the amyloid nucleation score result is “inactive”.

Take LSCNDYNDG: the amyloid nucleation score result was “inactive”.

With WSMSDFAALIGWIDALGLEL, the amyloid nucleation score entry is “inactive”.

Take HLSTRLARFPLL: the amyloid nucleation score result is “inactive”.

In the case of HERILATGVFEMDLGMLVFR, the amyloid nucleation score entry was “inactive”.

In the case of RSVNGVTLGTARYHAVERVL, the amyloid nucleation score result is “inactive”.

On to SFLPSNSFFKYQCVMWC, for which the amyloid nucleation score entry was “inactive”.

In the case of ECYIVWFLRLCSSGVYVYLR, the amyloid nucleation score entry is “inactive”.
